Laboratory results taken from patent US20130136736A1 (Ablynx, published 2013).

Target: T1, human von Willebrand Factor (vWF) (human, UniProt P04275 764-2813)
T1 construct: Multimeric plasma protein; The species of the vWF on the BIACORE chip and ELISA plates is not restated there; also called vWF (Red Cross); human vWF
Assay: ELISA on coated vWF: supernatant of a 200 µg/ml nanobody solution heated for 1 h at RT to 90 °C, dilution series, OD 405 nm

binding result: binds
B1: 12A2H4 (VHH)
VHH: EVQLVESGGGLVQPGGSLRLSCAASGRTFSYNPMGWFRQAPGKGRELVAAISRTGGSTYYPDSVEGRFTISRDNAKRSVYLQMNSLRAEDTAVYYCAAAGVRAEDGRVRTLPSEYTFWGQGTQVTVSS
notes: Humanised 12A2, monovalent
